From the supplement of paper PMC10724198
± gives the standard deviation of the averaged measurements.

Experiments:
Assay in all cases: protein stability index of tFT-peptide fusion (C-terminal peptide) (PSI (0-1 scale)); higher = more stable (slower turnover)
Saccharomyces cerevisiae [1] = settings: temperature: 30 C
Protocol: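 MPS profiling in S. cerevisiae of the yeast C-terminome library: the last 12 aa of each annotated ORF are fused to the C-terminus of a sfGFP-mCherry timer, after a GGGS linker. Cells are FACS-sorted into 8 mCherry/sfGFP bins and deep-sequenced. PSI runs from 0 (unstable) to 1 (stable); wild type and das1Δ backgrounds, two technical replicates each.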

Saccharomyces cerevisiae [2] = settings: genetic background: wild type; temperature: 30 C
Saccharomyces cerevisiae [3] = system: Saccharomyces cerevisiae
Protocol: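 MPS profiling in S. cerevisiae of the tFT-X12 degron library: putative degron peptides plus stable controls, 12 aa, fused to the C-terminus of a sfGFP-mCherry timer. Cells are FACS-sorted into 8 mCherry/sfGFP bins and deep-sequenced. PSI runs from 0 (unstable) to 1 (stable). Backgrounds are wild type, das1Δ and doa10Δ at 30 °C, and wild type, das1Δ, cdc34-1 and cdc53-1 at 37 °C; 2-3 technical replicates each.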

[4] = genetic background: das1 deletion
[5] = genetic background: cdc34-1, temperature: 37 C
[6] = genetic background: cdc53-1, temperature: 37 C
[7] = genetic background: das1 deletion, temperature: 30 C
[8] = genetic background: das1 deletion, temperature: 37 C
[9] = genetic background: doa10 deletion, temperature: 30 C
[10] = genetic background: wild type, temperature: 30 C
[11] = genetic background: wild type, temperature: 37 C

Row | Sequence | protein stability index (Saccharomyces cerevisiae [1]; [4]) | protein stability index (Saccharomyces cerevisiae [1]; genetic background: wild type) | protein stability index (Saccharomyces cerevisiae [2]) | protein stability index (Saccharomyces cerevisiae [3]; [5]) | protein stability index (Saccharomyces cerevisiae [3]; [6]) | protein stability index (Saccharomyces cerevisiae [3]; [7]) | protein stability index (Saccharomyces cerevisiae [3]; [8]) | protein stability index (Saccharomyces cerevisiae [3]; [9]) | protein stability index (Saccharomyces cerevisiae [3]; [10]) | protein stability index (Saccharomyces cerevisiae [3]; [11])
1 | AALESEDEDDEA [CAF20 C-terminal 12 aa] | 0.685 ± 0.041 | 0.6667 ± 0.0033 |  |  |  |  |  |  |  | 
2 | ADDDFDADMELE [CDC16 C-terminal 12 aa] | 0.685 ± 0.0038 | 0.728 ± 0.028 |  |  |  |  |  |  |  | 
3 | ADQELFMGIMNA [NMD5 C-terminal 12 aa] | 0.676 ± 0.012 | 0.677 ± 0.0097 |  |  |  |  |  |  |  | 
4 | AERAGNAGVKAE [SND3 C-terminal 12 aa] | 0.654 ± 0.0096 | 0.685 ± 0.017 |  |  |  |  |  |  |  | 
5 | AFTAKWKAENKQ [FYV4 C-terminal 12 aa] | 0.691 ± 0.017 | 0.6671 ± 0.0054 |  |  |  |  |  |  |  | 
6 | AGAAAVANQGKK [GPM1 C-terminal 12 aa] | 0.697 ± 0.016 | 0.715 ± 0.064 |  |  |  |  |  |  |  | 
7 | AIAEIKKSLAFA [SDH2 C-terminal 12 aa] | 0.684 ± 0.024 | 0.688 ± 0.086 |  |  |  |  |  |  |  | 
8 | AIRRENEWAEDR [SKP1 C-terminal 12 aa] | 0.6841 ± 0.005 | 0.709 ± 0.0089 |  |  |  |  |  |  |  | 
9 | AKDIKGYGTQKI [PRE4 C-terminal 12 aa] | 0.65979 ± 0.00058 | 0.695 ± 0.022 |  |  |  |  |  |  |  | 
10 | AKISDKENKAFL [MRPL15 C-terminal 12 aa] | 0.6927 ± 0.0019 | 0.678 ± 0.025 |  |  |  |  |  |  |  | 
11 | AKPALFERFINA [MCD1 C-terminal 12 aa] | 0.6979 ± 0.0043 | 0.665 ± 0.011 |  |  |  |  |  |  |  | 
12 | AKTSLYTATVIS [PAC11 C-terminal 12 aa] | 0.636 ± 0.015 | 0.6331 ± 0.006 |  |  |  |  |  |  |  | 
13 | ALNQVLGVPGAM [SSH1 C-terminal 12 aa] | 0.683 ± 0.017 | 0.671 ± 0.031 |  |  |  |  |  |  |  | 
14 | ALVDQLIAKYSS [ACB1 C-terminal 12 aa] | 0.703 ± 0.029 | 0.663 ± 0.042 |  |  |  |  |  |  |  | 
15 | ANARLESESKDP [UNG1 C-terminal 12 aa] | 0.6954 ± 0.0034 | 0.667 ± 0.033 |  |  |  |  |  |  |  | 
16 | ANGTSPGVHVRE [IRC15 C-terminal 12 aa] | 0.693 ± 0.0096 | 0.678 ± 0.017 |  |  |  |  |  |  |  | 
17 | ARGAGGFGSTGN [DUT1 C-terminal 12 aa] | 0.697 ± 0.0079 | 0.7208 ± 0.0062 |  |  |  |  |  |  |  | 
18 | ARRTFTGRKIVY [ARC35 C-terminal 12 aa] | 0.7301 ± 0.0013 | 0.7288 ± 0.0052 |  |  |  |  |  |  |  | 
19 | ASEKEKSECVVM [MIY2 C-terminal 12 aa] | 0.733 ± 0.017 | 0.745 ± 0.0097 |  |  |  |  |  |  |  | 
20 | ASFAKDVISLPE [YER046W-A C-terminal 12 aa] | 0.7202 ± 0.00094 | 0.699 ± 0.079 |  |  |  |  |  |  |  | 
21 | ASRHSSTKKTST [CAB1 C-terminal 12 aa] | 0.6986 ± 0.0058 | 0.692 ± 0.054 |  |  |  |  |  |  |  | 
22 | ATGTKSDRPIWR [SHE1 C-terminal 12 aa] | 0.6627 ± 0.00093 | 0.72 ± 0.034 |  |  |  |  |  |  |  | 
23 | ATRNLNQYWRVL [YAL019W-A C-terminal 12 aa] | 0.68 ± 0.011 | 0.58 ± 0.023 |  |  |  |  |  |  |  | 

Row | Sequence | protein stability index (Saccharomyces cerevisiae [1]; [4]) | protein stability index (Saccharomyces cerevisiae [1]; genetic background: wild type) | protein stability index (Saccharomyces cerevisiae [2]) | protein stability index (Saccharomyces cerevisiae [3]; [5]) | protein stability index (Saccharomyces cerevisiae [3]; [6]) | protein stability index (Saccharomyces cerevisiae [3]; [7]) | protein stability index (Saccharomyces cerevisiae [3]; [8]) | protein stability index (Saccharomyces cerevisiae [3]; [9]) | protein stability index (Saccharomyces cerevisiae [3]; [10]) | protein stability index (Saccharomyces cerevisiae [3]; [11])
24 | AVGETRLKKSKK [PRP21 C-terminal 12 aa] | 0.689 ± 0.016 | 0.779 ± 0.12 |  |  |  |  |  |  |  | 
25 | AVSEELIKMWYD [GCN3 C-terminal 12 aa] | 0.7218 ± 0.0015 | 0.736 ± 0.037 |  |  |  |  |  |  |  | 
26 | AYECAKHFLMTY [MRS3 C-terminal 12 aa] | 0.689 ± 0.033 | 0.653 ± 0.057 |  |  |  |  |  |  |  | 
27 | VVGITIMVFIIT |  |  | 0.333 ± 0.069 | 0.138 ± 0.0028 | 0.195 ± 0.065 | 0.184 ± 0.045 | 0.312 ± 0.0043 | 0.15 ± 0.018 | 0.185 ± 0.027 | 0.326 ± 0.046
28 | VVIGAVLFVVVR |  |  | 0.29 ± 0.012 | 0.0736 ± 0.0063 | 0.21 ± 0.015 | 0.157 ± 0.028 | 0.291 ± 0.0065 | 0.12 ± 0.0087 | 0.134 ± 0.035 | 0.25 ± 0.005
29 | VVIWGMLLCGLG |  |  | 0.44 ± 0.029 | 0.447 ± 0.0096 | 0.502 ± 0.009 | 0.353 ± 0.029 | 0.539 ± 0.026 | 0.326 ± 0.015 | 0.348 ± 0.018 | 0.487 ± 0.016
30 | VVTICVASWSGL |  |  | 0.42 ± 0.0091 | 0.521 ± 0.038 | 0.573 ± 0.011 | 0.352 ± 0.017 | 0.54018 ± 4.7e-05 | 0.362 ± 0.029 | 0.36 ± 0.027 | 0.532 ± 0.012
31 | VVTVCIIRLAWG |  |  | 0.367 ± 0.036 | 0.219 ± 0.0046 | 0.315 ± 0.056 | 0.215 ± 0.025 | 0.386 ± 0.014 | 0.189 ± 0.013 | 0.225 ± 0.018 | 0.342 ± 0.019
32 | VVVLRRVIEVMQ |  |  | 0.342 ± 0.0062 | 0.327 ± 0.015 | 0.37 ± 0.025 | 0.256 ± 0.03 | 0.448 ± 0.013 | 0.199 ± 0.0065 | 0.253 ± 0.027 | 0.413 ± 0.012
33 | VVVRFCLGICFC |  |  | 0.388 ± 0.011 | 0.36066 ± 0.00017 | 0.408 ± 0.013 | 0.301 ± 0.022 | 0.438 ± 0.021 | 0.265 ± 0.0087 | 0.288 ± 0.017 | 0.41 ± 0.012
34 | VWAWAVVVFVVL |  |  | 0.241 ± 0.009 | 0.196 ± 0.054 | 0.343 ± 0.0075 | 0.205 ± 0.02 | 0.379 ± 0.017 | 0.171 ± 0.01 | 0.2 ± 0.035 | 0.385 ± 0.046
35 | VWEKGVCGRMVG |  |  | 0.703 ± 0.0081 | 0.676 ± 0.015 | 0.7689 ± 0.0024 | 0.652 ± 0.021 | 0.744 ± 0.037 | 0.639 ± 0.012 | 0.6609 ± 0.0066 | 0.7276 ± 0.0072
36 | VWSFFTSFIRYI |  |  | 0.169 ± 0.028 | 0.5614 ± 0.0036 | 0.647 ± 0.018 | 0.6542 ± 0.0065 | 0.752 ± 0.041 | 0.106 ± 0.0018 | 0.109 ± 0.022 | 0.114 ± 0.0081
37 | VWVISLCIGGGG |  |  | 0.312 ± 0.013 | 0.297 ± 0.0044 | 0.369 ± 0.015 | 0.24 ± 0.028 | 0.405 ± 0.011 | 0.213 ± 0.025 | 0.225 ± 0.021 | 0.3796 ± 0.0035
38 | VWVLLCKYVILL |  |  | 0.218 ± 0.0091 | 0.228 ± 0.034 | 0.3521 ± 0.0031 | 0.237 ± 0.036 | 0.457 ± 0.0046 | 0.139 ± 0.021 | 0.145 ± 0.014 | 0.268 ± 0.023
39 | VWWGVGVWLLVG |  |  | 0.147 ± 0.04 | 0.104 ± 0.025 | 0.176 ± 0.02 | 0.242 ± 0.015 | 0.369 ± 0.011 | 0.0694 ± 0.016 | 0.0673 ± 0.018 | 0.0755 ± 0.036
40 | VYVVCFRLGCWV |  |  | 0.297 ± 0.036 | 0.222 ± 0.0066 | 0.321 ± 0.013 | 0.199 ± 0.035 | 0.39 ± 0.0064 | 0.172 ± 0.0025 | 0.2 ± 0.022 | 0.371 ± 0.0082
41 | WAFRLWWFFCLV |  |  | 0.375 ± 0.034 | 0.402 ± 0.048 | 0.452 ± 0.02 | 0.437 ± 0.022 | 0.579 ± 0.067 | 0.277 ± 0.01 | 0.257 ± 0.015 | 0.273 ± 0.0095
42 | WALPRILFLRLT |  |  | 0.169 ± 0.028 | 0.118 ± 0.074 | 0.157 ± 0.016 | 0.359 ± 0.043 | 0.415 ± 0.0039 | 0.103 ± 0.00013 | 0.0657 ± 0.0088 | 0.0911 ± 0.021
43 | WDSCVGRRGIVA |  |  | 0.4869 ± 0.0015 | 0.559 ± 0.025 | 0.63 ± 0.021 | 0.402 ± 0.035 | 0.62 ± 0.025 | 0.388 ± 0.013 | 0.42 ± 0.021 | 0.6038 ± 0.0016
44 | WFGGVRVPRHVV |  |  | 0.455 ± 0.032 | 0.651 ± 0.034 | 0.709 ± 0.027 | 0.668 ± 0.018 | 0.7484 ± 0.0044 | 0.394 ± 0.024 | 0.448 ± 0.018 | 0.645 ± 0.026
45 | WFLWWCVCLFVF |  |  | 0.307 ± 0.0073 | 0.312 ± 0.015 | 0.314 ± 0.03 | 0.304 ± 0.023 | 0.403 ± 0.018 | 0.2527 ± 0.00072 | 0.255 ± 0.012 | 0.299 ± 0.0032
